Source: patent publication US7402314B2, “In vivo activation of tumor-specific cytotoxic T cells” (The Scripps Research Institute, priority 1995, dated 2008)

Molecular target: A2.1/K^b (UniProt P01901+P04439, D140Y/D185E/D98H/E176V/G131W/I119V/I121R/I166T/N151K/N90K/Q86G/Q94H/R138H/R169H)
Assay type: binding, human-mouse chimeric

| Sequence | inhibition of binding of the influenza A-derived peptide to A2.1/K^b by Her-2/Neu-derived peptides | binding of test peptide to A2.1/K^b (percent specific lysis of EA2/K^b targets by influenza A-specific CTL) |
| --- | --- | --- |
| ILLVVVLGV [Peptide H9] | binding at the highest efficiency |  |
| ILKEPVHGV [HIV-1 RT 476-484, reference compound] |  | efficiently bound to A2.1/K^b |
